Test results reported in US20230277625A1 (SIMCHA IL 18, published 2023).
Where a chain is given by its changes, count along the chain named. Names may count otherwise.

T1: Human Interleukin-18 (mature form), wild type (human, UniProt Q14116 37-193)
T1 sequence: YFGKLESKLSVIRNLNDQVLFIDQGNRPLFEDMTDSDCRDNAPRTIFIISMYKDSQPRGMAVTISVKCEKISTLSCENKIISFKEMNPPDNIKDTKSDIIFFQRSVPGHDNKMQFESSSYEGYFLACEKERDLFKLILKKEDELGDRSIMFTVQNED

T2: Human IL-18Rα ectodomain (amino acids 19-329), biotinylated (human, UniProt Q13478 19-329, biotin on the AviTag (BirA ligase))
T2 construct: range 19-329; Secreted from insect cells (gp67 signal peptide removed); also called hIL-18Rα; hIL18Rα
T2 sequence: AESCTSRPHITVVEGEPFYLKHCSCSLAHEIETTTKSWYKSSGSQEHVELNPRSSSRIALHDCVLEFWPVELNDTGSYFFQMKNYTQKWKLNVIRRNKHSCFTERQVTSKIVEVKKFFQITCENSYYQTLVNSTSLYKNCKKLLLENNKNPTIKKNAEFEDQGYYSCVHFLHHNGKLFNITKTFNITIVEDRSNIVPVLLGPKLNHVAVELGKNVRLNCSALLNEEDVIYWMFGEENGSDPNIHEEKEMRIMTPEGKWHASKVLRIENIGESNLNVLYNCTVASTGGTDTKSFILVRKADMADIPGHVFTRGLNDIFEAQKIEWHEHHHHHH

T3: Cynomolgus monkey IL-18Rα, biotinylated (cynomolgus monkey, UniProt A0A2K5V3J9 19-328, biotinylated)
T3 sequence: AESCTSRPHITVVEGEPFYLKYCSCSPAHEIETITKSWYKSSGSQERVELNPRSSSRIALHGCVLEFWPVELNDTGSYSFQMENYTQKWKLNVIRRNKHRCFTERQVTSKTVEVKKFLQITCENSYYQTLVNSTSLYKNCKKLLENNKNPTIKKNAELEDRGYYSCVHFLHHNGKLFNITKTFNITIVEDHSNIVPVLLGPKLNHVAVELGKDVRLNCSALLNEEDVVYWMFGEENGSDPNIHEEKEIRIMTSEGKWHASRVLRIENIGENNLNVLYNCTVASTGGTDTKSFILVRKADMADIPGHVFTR

T4: IL-18 receptor (IL-18Rα / IL-18Rβ heterodimer) on HEK-Blue IL-18 reporter cells (UniProt Q13478 19-541; O95256 20-599, limits assumed)
T4 sequence (looked up) 1: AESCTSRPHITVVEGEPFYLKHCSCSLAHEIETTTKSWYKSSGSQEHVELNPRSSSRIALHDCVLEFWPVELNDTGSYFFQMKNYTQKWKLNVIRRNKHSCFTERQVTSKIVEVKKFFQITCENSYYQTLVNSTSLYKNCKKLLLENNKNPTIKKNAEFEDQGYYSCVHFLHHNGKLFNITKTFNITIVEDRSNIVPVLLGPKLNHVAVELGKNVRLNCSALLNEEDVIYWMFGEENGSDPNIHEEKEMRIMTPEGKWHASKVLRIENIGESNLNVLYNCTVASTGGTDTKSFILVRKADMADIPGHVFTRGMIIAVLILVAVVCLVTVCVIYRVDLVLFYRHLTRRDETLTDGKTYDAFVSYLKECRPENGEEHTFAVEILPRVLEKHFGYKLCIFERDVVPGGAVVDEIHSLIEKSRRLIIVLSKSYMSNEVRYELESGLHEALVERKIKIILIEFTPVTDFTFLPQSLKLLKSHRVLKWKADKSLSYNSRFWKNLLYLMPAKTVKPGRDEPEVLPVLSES
T4 sequence (looked up) 2: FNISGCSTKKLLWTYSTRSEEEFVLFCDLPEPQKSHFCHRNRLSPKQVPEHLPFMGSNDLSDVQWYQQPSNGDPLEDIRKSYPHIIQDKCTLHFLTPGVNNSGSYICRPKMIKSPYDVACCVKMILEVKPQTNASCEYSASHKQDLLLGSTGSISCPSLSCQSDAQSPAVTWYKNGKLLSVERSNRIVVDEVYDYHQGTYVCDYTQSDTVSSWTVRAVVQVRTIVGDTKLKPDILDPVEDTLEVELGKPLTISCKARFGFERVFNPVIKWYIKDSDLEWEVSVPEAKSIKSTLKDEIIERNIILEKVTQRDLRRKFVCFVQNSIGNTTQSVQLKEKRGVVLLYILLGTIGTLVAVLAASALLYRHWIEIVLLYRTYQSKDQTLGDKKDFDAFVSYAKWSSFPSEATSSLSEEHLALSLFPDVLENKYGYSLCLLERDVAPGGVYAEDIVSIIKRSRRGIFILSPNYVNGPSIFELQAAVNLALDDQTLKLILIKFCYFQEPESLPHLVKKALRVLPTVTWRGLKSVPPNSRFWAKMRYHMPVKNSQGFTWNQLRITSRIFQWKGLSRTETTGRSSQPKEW

B1: Human IL-18BP (amino acids 31-194), biotinylated (receptor)
chain: TPVSQTTTAATASVRSTKDPCPSQPPVFPAAKQCPALEVTWPEVEVPLNGTLSLSCVACSRFPNFSILYWLGNGSFIEHLPGRLWEGSTSRERGSTGTQLCKALVLEQLTPALHSTNFSCVLVDPEQVVQRHVVLAQLWAGLRATLPPTQEALPSSHSSPQQQGGLNDIFEAQKIEWHEHHHHHH
modifications: biotin on the AviTag (BirA ligase) where used biotinylated
notes: Soluble decoy receptor; also called hIL-18BP; recombinant IL-18BP
B2: SEQ ID NO: 19 (stabilized human DR-IL-18; SEQ ID NO: 89 plus C38S/C68D) (ligand)
chain: T1 sequence with C38S, M51K, K53S, Q56L, P57A, M60L, C68D, S105D, D110S, N111R
B3: SEQ ID NO: 88 (second generation human DR-IL-18 variant 6-20) (ligand)
chain: T1 sequence with M51K, K53G, Q56R, S105A, D110N, N111R
notes: Engineered variant
B4: SEQ ID NO: 36 (human DR-IL-18 variant hCS3) (ligand)
chain: T1 sequence with Y1R, M51T, M60K, S105D, D110K, N111H
notes: Engineered variant

Assays:
[1] = biological target: T1, Human Interleukin-18 (mature form), …; assay: cell-based or functional assay
[2] = biological target: T1, Human Interleukin-18 (mature form), …; assay: competition on yeast (flow cytometry): hIL-18BP titrated against a fixed 100 nM biotinylated hIL-18Rα on yeast-displayed IL-18
Experimental: By contrast, IL-18BP effectively neutralizes the IL-18 E42A, K89A and E42A/K89A previously described (Kim et al., 2001, Proc. Natl. Acad. Sci., 98(6):3304-3309) (shown in chart on right) [E42 and K89 of Kim et al. are E6 and K53 of SEQ ID NO: 30, respectively]. Biotinylated IL-18Rα was kept at a fixed concentration of 100 nM for all samples.
(§1) Individual colonies of IL-18 yeast were grown overnight at 30° C. in SDCAA liquid media and induced in SGCAA liquid media for 1 day at 20° C. IL-18 display levels on yeast were verified by flow cytometry using an anti-cMyc tag antibody (anti-myc-PE; Cell Signaling Technologies). Receptor staining with biotinylated IL-18Rα (with or without IL-18R β) or biotinylated IL-18BP was performed in PBS supplemented with 0.5% BSA and 2 mM EDTA (PBE) on ice. All analysis was performed on a Sony SA3800 flow cytometer.

[3] = biological target: T2, Human IL-18Rα ectodomain (amino acids …); assay: SPR single-cycle kinetics, biotinylated hIL-18Rα on a streptavidin capture chip, IL-18 variant as analyte
Experimental: (§2) IL-18 receptor affinity. The affinities of human IL-18 and SEQ ID NO: 19 were determined for both human and cynomolgus monkey IL-18Rα and IL-18BP using surface plasmon resonance. Biotinylated receptor proteins were immobilized on a streptavidin capture chip and IL-18 or SEQ ID NO: 19 were applied as the free analyte. […] were used to determine binding. WT hIL-18 and SEQ ID NO: 19 had similar binding affinity for IL-18Rα in this assay (FIG. 37A).

[4] = biological target: T3, Cynomolgus monkey IL-18Rα, biotinylated; assay: SPR single-cycle kinetics, biotinylated cynomolgus IL-18Rα on a streptavidin capture chip, IL-18 variant as analyte
Experimental: as §2

[5] = biological target: T4, IL-18 receptor (IL-18Rα / IL-18Rβ …); assay: cell-based or functional assay
[6] = biological target: B1; assay: on-yeast binding isotherm (flow cytometry), drawn summary table, column IL18BP (KD); IL18Rα column reads N.D.
[7] = biological target: B1; assay: on-yeast binding isotherm (flow cytometry)
[8] = biological target: B1; assay: on-yeast binding isotherms; KD for IL-18BP over KD for IL-18Rα
[9] = biological target: B1; assay: SPR; KD(IL-18BP)/KD(IL-18Rα) normalized to WT IL-18
[10] = biological target: B1; assay: SPR (Biacore T100), IL-18BP captured via biotin, IL-18 as analyte
Experimental: (§3) Experiments were conducted using a Biacore T100 and carried out at 25° C. Biotinylated IL-18Rα or IL-18BP were immobilized onto a Biacore biotin capture chip (Series S CAP sensor chip, GE Healthcare) to yield an Rmax of ˜50 RU (IL-18Rα) or ˜10 RU (IL-18BP). Measurements were made with serial dilutions of the IL-18 variants in HEPES buffered Saline-P+buffer (10 mM HEPES pH 7.4, 150 mM NaCl, 0.005% surfactant P20). The surface was regenerated by three 60-sec injections of regeneration buffer (3/4 (v/v) 8M guanidine hydrochloride with 1/4 (v/v) 1M sodium hydroxide). Experiments were performed in multiple channels simultaneously for increased observations. All data were analyzed with the Biacore T100 evaluation software version 2.0 with a 1:1 Langmuir binding model.
(§4) To additionally characterize the receptor binding activities of the DR-IL-18 variants, the cytokines were expressed recombinantly and surface plasmon resonance for IL-18Rα and IL-18BP was performed (see FIG. 5B for representative traces).

[11] = biological target: B1; assay: on-yeast binding isotherms; KD ratio relative to WT IL-18
[12] = biological target: B1; assay: on-yeast binding isotherm (flow cytometry); members per FIG. 5A legend
Experimental: as §1, §4

[13] = biological target: B1; assay: SPR; KD ratio relative to WT IL-18
Experimental: as §3, §4

[14] = biological target: B1; assay: SPR; average of 2 studies
[15] = biological target: T2, Human IL-18Rα ectodomain (amino acids …); assay: SPR; average of 2 studies
[16] = biological target: B1; assay: SPR; KD for IL-18BP over KD for IL-18Rα
Experimental: as §3, §4

[17] = biological target: T2, Human IL-18Rα ectodomain (amino acids …); assay: SPR (Biacore T100), receptor captured via biotin, IL-18 as analyte
Experimental: as §3, §4

## B1
[1]
  IC50 of recombinant IL-18BP in the HEK Blue IL-18 signaling assay (hIL-18 fixed at 5 nM): 3 nM
[2]
  IC50 (read off the curve): ~20 nM

## B2
[3]
  Kd: 18.8 nM
[4]
  Kd: 10.9 nM
[5]
  EC50-#1 (M), HEK-Blue reporter: 1.24e-10 M
  EC50-#2 (M), HEK-Blue reporter: 7.9e-11 M

## B3
[6]
  Kd: 340 nM
[7]
  Kd: 340 nM

## B4
[8]
  KD ratio IL-18BP/IL-18Rα: 103
[9]
  IL-18 BP:Rα Dissociation Constant Ratio: 4350
[10]
  Kd: 18.6 nM
[11]
  Dissociation Constant Ratio normalized to WT IL-18: 348
[12]
  EC50: > 1000 nM
[13]
  Dissociation Constant Ratio normalized to WT IL-18: 3500
[14]
  Kd: 19.3 nM
[15]
  Kd: 9.1 nM
[16]
  KD ratio IL-18BP/IL-18Rα: 2.27
[7]
  Kd: 11600 nM
[17]
  Kd: 8.18 nM
